Experimental data: PMC2572727, “The GET Complex Mediates Insertion of Tail-Anchored Proteins into the ER Membrane” (Cell, 2008)

Molecular target: T1, purified Get1-PC and Get2-HA reconstituted in proteoliposomes (yeast, UniProt P53192 1-235; P40056 1-285)
T1 construct: Get1 (Mdm39), yeast; construct details in the Supplemental Data; Get2 (Rmd7, Hur2), yeast; also called +Get1/+Get2; Get1/Get2 complex; source: copurified from yeast, reconstituted into proteoliposomes
T1 sequence (looked up) 1: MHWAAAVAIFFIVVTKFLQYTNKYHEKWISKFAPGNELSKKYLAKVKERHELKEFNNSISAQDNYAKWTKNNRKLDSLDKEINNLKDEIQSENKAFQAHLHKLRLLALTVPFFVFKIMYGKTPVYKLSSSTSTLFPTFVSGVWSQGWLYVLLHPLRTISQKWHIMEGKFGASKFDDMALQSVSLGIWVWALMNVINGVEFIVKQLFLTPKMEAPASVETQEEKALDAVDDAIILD
T1 sequence (looked up) 2: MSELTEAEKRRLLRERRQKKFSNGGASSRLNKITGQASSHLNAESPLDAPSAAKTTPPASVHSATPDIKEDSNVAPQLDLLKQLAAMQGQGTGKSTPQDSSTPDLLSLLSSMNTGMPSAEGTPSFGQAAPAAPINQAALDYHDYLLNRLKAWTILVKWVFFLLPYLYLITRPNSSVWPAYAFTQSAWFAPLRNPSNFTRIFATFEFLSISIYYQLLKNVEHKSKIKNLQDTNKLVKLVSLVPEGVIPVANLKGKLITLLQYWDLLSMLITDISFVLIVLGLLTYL
Test: co-sedimentation; recombinant Get3 incubated with proteoliposomes reconstituted with purified Get1-PC and Get2-HA or with Phs1 as control; Optiprep gradient fractions blotted with αGet3 or αPhs1
Settings: both partners purified

- binding result: binds
B1: recombinant Get3 ATPase (enzyme, yeast, UniProt Q12154 1-354, looked up)
chain: MDLTVEPNLHSLITSTTHKWIFVGGKGGVGKTTSSCSIAIQMALSQPNKQFLLISTDPAHNLSDAFGEKFGKDARKVTGMNNLSCMEIDPSAALKDMNDMAVSRANNNGSDGQGDDLGSLLQGGALADLTGSIPGIDEALSFMEVMKHIKRQEQGEGETFDTVIFDTAPTGHTLRFLQLPNTLSKLLEKFGEITNKLGPMLNSFMGAGNVDISGKLNELKANVETIRQQFTDPDLTTFVCVCISEFLSLYETERLIQELISYDMDVNSIIVNQLLFAENDQEHNCKRCQARWKMQKKYLDQIDELYEDFHVVKMPLCAGEIRGLNNLTKFSQFLNKEYNPITDGKVIYELEDKE
notes: Get3 (Arr4), yeast homolog of Asna1/TRC40, soluble cytosolic ATPase; also called Arr4; source: purified from Escherichia coli (Metz et al., 2006)
